Experimental data as given in publication PMC3670613 (Structure (London, England : 1993), 2013).
Where two headings read alike, the source gives them in different places. One block for each binder: values may come before it.

How the values were obtained:
[1] = target: T1, S. cerevisiae Rpn14 (recombinant) (S. cerevisiae, UniProt P53196 1-417); assay: NMR titration
[2] = target: T1, S. cerevisiae Rpn14 (recombinant); assay: AUC
[3] = target: T1, S. cerevisiae Rpn14 (recombinant); assay: AUC; remark: listed apart in the source

T1 sequence (P53196 whole entry): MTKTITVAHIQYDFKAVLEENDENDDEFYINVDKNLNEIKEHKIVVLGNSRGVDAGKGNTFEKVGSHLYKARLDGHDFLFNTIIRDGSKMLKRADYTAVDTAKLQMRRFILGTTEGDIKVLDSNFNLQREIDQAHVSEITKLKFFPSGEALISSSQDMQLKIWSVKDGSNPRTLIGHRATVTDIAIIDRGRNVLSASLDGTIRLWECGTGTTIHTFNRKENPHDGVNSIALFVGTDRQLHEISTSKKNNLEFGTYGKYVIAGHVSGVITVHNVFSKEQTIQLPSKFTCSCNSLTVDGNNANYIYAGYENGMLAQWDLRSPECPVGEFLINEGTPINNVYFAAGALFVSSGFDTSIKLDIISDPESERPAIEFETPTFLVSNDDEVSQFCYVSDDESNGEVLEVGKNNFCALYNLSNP

binding result [1]: binds
B1: Rpt6-C (P318-N393) (domain or fragment, S. cerevisiae, UniProt Q01939 318-393, looked up)
chain: PPSVAARAEILRIHSRKMNLTRGINLRKVAEKMNGCSGADVKGVCTEAGMYALRERRIHVTQEDFELAVGKVMNKN

Kd [2]: 0.25 nM
stoichiometry N [2]: 1
B2: S. cerevisiae Rpt6 C-terminal domain (Rpt6-C), P318-K405 (domain or fragment, UniProt Q01939 318-405, looked up)
chain: PPSVAARAEILRIHSRKMNLTRGINLRKVAEKMNGCSGADVKGVCTEAGMYALRERRIHVTQEDFELAVGKVMNKNQETAISVAKLFK

Kd [3]: 0.01 nM
B3: Rpt6-C G^360,387A (domain or fragment, S. cerevisiae, UniProt Q01939 318-405, looked up)
chain: PPSVAARAEILRIHSRKMNLTRGINLRKVAEKMNGCSGADVKAVCTEAGMYALRERRIHVTQEDFELAVAKVMNKNQETAISVAKLFK
